Assay results from PMC3115558 (Biochemistry, 2011).
Ends that are not written are not given here.

Target: PP1α catalytic subunit (New England BioLabs) (UniProt P62139 1-330)
Experiment: SPR

Chain of PP1α catalytic subunit (New England BioLabs) (P62139 whole entry): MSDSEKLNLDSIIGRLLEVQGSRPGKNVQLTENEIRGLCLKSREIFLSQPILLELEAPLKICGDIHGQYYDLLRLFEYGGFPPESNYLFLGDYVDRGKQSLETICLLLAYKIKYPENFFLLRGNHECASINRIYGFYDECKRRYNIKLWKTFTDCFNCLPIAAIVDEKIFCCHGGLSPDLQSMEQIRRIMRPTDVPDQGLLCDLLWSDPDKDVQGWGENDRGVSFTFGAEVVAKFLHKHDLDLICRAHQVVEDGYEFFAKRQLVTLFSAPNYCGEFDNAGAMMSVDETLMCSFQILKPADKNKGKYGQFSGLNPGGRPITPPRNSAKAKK

Kd: 341 nM
B1: Biotinylated AKAP79 synthetic peptide, amino acids 25-49, mutant (AxxAxA) (peptide)
chain: AERQKEKASMLCAKRAKAAAKALKP
modifications: also: biotinylated, position not given here
